# Test results: paper PMC7948816 (2021)
# What was measured:
# alpha-tropomyosin [1] = target: T1, alpha-tropomyosin (Oryctolagus cuniculus, UniProt P58772); assay: ITC
# alpha-tropomyosin [2] = target: T1, alpha-tropomyosin; assay: fluorescence titration
# T1 sequence (P58772 whole entry): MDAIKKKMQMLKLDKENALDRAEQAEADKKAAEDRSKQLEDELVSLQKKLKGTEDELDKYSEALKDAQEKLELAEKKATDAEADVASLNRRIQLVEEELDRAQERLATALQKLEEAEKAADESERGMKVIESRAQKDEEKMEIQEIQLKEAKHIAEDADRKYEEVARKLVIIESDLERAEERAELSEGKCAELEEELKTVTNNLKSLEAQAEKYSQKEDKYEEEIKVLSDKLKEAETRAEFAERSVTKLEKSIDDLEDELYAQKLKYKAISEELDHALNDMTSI
Kd (alpha-tropomyosin [1]),Kd (alpha-tropomyosin [2]),Binder
11 µM,8 µM,ENREVGDWRKNIDALSGMEGRKKKFES [cardiac troponin I C-terminal peptide HcTnI-C27 184-210]
–,15 µM,ENREVGDWHKNIDALSGMEGRKKKFES [cardiac troponin I C-terminal peptide HcTnI-C27-H 184-210]
